B1: Rab GTPase-binding effector protein 1 (Homo sapiens), Q15276 (parent)
chain: MAQPGPASQPDVSLQQRVAELEKINAEFLRAQQQLEQEFNQKRAKFKELYLAKEEDLKRQNAVLQAAQDDLGHLRTQLWEAQAEMENIKAIATVSENTKQEAIDEVKRQWREEVASLQAVMKETVRDYEHQFHLRLEQERTQWAQYRESAEREIADLRRRLSEGQEEENLENEMKKAQEDAEKLRSVVMPMEKEIAALKDKLTEAEDKIKELEASKVKELNHYLEAEKSCRTDLEMYVAVLNTQKSVLQEDAEKLRKELHEVCHLLEQERQQHNQLKHTWQKANDQFLESQRLLMRDMQRMEIVLTSEQLRQVEELKKKDQEDDEQQRLNKRKDHKKADVEEEIKIPVVCALTQEESSAQLSNEEEHLDSTRGSVHSLDAGLLLPSGDPFSKSDNDMFKDGLRRAQSTDSLGTSGSLQSKALGYNYKAKSAGNLDESDFGPLVGADSVSENFDTASLGSLQMPSGFMLTKDQERAIKAMTPEQEETASLLSSVTQGMESAYVSPSGYRLVSETEWNLLQKEVHNAGNKLGRRCDMCSNYEKQLQGIQIQEAETRDQVKKLQLMLRQANDQLEKTMKDKQELEDFIKQSSEDSSHQISALVLRAQASEILLEELQQGLSQAKRDVQEQMAVLMQSREQVSEELVRLQKDNDSLQGKHSLHVSLQQAEDFILPDTTEALRELVLKYREDIINVRTAADHVEEKLKAEILFLKEQIQAEQCLKENLEETLQLEIENCKEEIASISSLKAELERIKVEKGQLESTLREKSQQLESLQEIKISLEEQLKKETAAKATVEQLMFEEKNKAQRLQTELDVSEQVQRDFVKLSQTLQVQLERIRQADSLERIRAILNDTKLTDINQLPET
partner: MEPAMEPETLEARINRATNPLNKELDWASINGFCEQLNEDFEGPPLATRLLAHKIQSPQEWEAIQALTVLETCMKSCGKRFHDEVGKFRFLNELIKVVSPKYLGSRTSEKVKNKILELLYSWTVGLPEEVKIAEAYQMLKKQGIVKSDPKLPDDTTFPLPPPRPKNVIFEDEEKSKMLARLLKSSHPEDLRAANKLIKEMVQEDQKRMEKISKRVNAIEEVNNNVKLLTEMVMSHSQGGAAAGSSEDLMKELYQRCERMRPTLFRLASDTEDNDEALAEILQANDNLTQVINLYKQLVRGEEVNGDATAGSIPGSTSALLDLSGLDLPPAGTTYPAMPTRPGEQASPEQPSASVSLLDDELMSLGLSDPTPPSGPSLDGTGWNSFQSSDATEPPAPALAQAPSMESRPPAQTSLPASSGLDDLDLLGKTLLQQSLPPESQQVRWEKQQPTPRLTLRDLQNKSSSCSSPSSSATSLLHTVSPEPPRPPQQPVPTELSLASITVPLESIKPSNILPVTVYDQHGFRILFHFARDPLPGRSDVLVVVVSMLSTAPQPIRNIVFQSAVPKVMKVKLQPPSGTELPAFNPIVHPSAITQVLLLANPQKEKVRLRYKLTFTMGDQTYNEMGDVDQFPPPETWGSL

Variants of: B1
Details: with gga1_human GGA1, Q9UJY5

Effect of a mutation on the interaction, decreasing interaction:
Q561A
M563R
Q566R
Q566A
N568R
